Laboratory results as given in patent US20250387450A1.
Each block holds one binder with its values, some of them ahead of it.

Target: TRPV1 disordered region polypeptide (UniProt Q8NER1)
Assay: modified sandwich ELISA, fluorescence grade by the table's key

fluorescent signal (fluorescentsignal): 50000 to 100000
B1: engineered scaffold protein S068 (designed binder)
chain: GDTRPRFLWQLKFECHFFNGTERVRLLERCIYNQEESVRFDSDVGEYRAVTELGRPDAEYWNSQKDLLEQRRAAVDTYCRHNYGVGESFTVQRRVEPKVTVYPSKTQPLQHHNLLVCSVSGFYPGSIEVRWFRNGQEEKAGVVSTGLIQNGDWTFQTLVMLETVPRSGEVYTCQVEHPSVTSPLTVEWRASGGGGSGGGGSGGGGIKEEHVIIQAEFYLNPDQSGEFMFDFDGDEIFHVDMAKKETVWRLEEFGRFASFEAQGALANIAVDKANLEIMTKRSNYTPITNVPPEVTVLTNSPVELREPNVLICFIDKFTPPVVNVTWLRNGKPVTTGVSETVFLPREDHLFRKFHYLPFLPSTEDVYDCRVEHWGLDEPLLKHWEFDAPSGGSHHHHHHLE

fluorescent signal (fluorescentsignal): 100000 to 250000
B2: engineered scaffold protein S005 (designed binder)
chain: MIKEEHVIIQAEFYLNPDQSGEFMFDFDGDEIFHVDMAKKETVWRLEEFGRFASFEAQGALANIAVDKANLEIMTKRSNYTPMGDTRPRFLWQLKFECHFFNGTERVRLLERCIYNQEESVRFDSDVGEYRAVTELGRPDAEYWNSQKDLLEQRRAAVDTYCRHNYGVGESFTVQGGSHHHHHHLE

fluorescent signal (fluorescentsignal): 100000 to 250000
B3: engineered scaffold protein S090 (designed binder)
chain: IKEEHSIRQNEMYLNPDQSGLFEFHLDGQPIFRVDMQKKRTKWQLEEFGRFASFEAQGALANIAVDKANLEIMTKRSNQSEAGSHSWQLIFVCEFHEGTESVRLSERCYYNQELSVSFNSDVGEYRAVTELGRPDAEYWNSQKDLLEQRRAAVDTYCRHNYGVGESFTVQRRGGSHHHHHHLE
